Experiment: soluble fraction after stress (log2 fold change); higher = more stays soluble; pooled small domains, quantitative proteomics
Settings: stress: 50 degC
Outline: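 After stress at 50°C, the amount of each protein still soluble was measured. This was done on pooled custom libraries of small protein domains, using high-throughput quantitative proteomics. The figure given is a base-two log fold change and stands for aggregation propensity, with higher values meaning more protein stays in solution.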

| Sequence | soluble fraction (log2) |
| --- | --- |
| HMSDFEASDPALLREGMRVQHLNFGKGTVITIEGAGANKKASVAFDGVGTKQLMLRFARLKIIYE | -0.146 |
| HMLPKAERREQLMAVARSVFAEQGYHTTSMEIIAETAGVSKPLLYQHFPSKLDLYLALLDAGID | -1.56 |
| HMSEEVDVPDLVGMQLEEAEKSLEPLGLKLKIAKEIPNSEFEKGKIVDQKTKAGEKVKTGYTIEVTVSSG | -0.267 |
| HMSTGGDLTQRERELLGLMARGLSNQEISKRLTIAMPTVKFHVTNILAKLHADNRTEAVLVALKNKLVAL | -0.748 |
| HMSAITLDQARAIALDHAGISEGDATFVKEQTGTSSYEIEFYSGSNEYDYEIDKATGAILNVDR | 0.0269 |
| HMAAMDMFVKLDALDAELTEQLKALPAEPDDARVERGLALLTDYDHRIKALLTEIFGGENDFDKVL | -2.4 |
| HMSWAGRRSLAALEARYRDETGISNLKIKHNGVLGYHIEVPSKSADKLMAPDSGFTHRQTLAGAVR | 0.0529 |
| HMASENISYSQFINQVKNSMVESVSIEADGKTISGKYKSGSSFVTYGLNDPKLVDDLLSNNVEIL | 0.159 |
| HMVVQTELVRISITSLSGEDIRRLVQIKVVGATIEPFEGGGFLITGTAEQIAKAKDFLNSMSTEF | -0.855 |
| HMAADWTAIKLAYVNGGMSMRELAQRFHVGAAGLMKRAAKEGWEAERQQNSAKVSNAAQMLIN | 0.33 |
| HMAPGSKAEIPEDLMKVINKDPKMKAFVATLNKANIMAISFRLSTAKKPETRERRFNLILETLKRGEKF | -3.18 |
| HMSEFAYPISLNGKTKFNLALSLALTKEEIEKEVLANADVQKFLNGQTPKKLIVVPGKIVNVV | -0.322 |
| HMQMKDRILRIMEHEGISPSKFAEEIGIQRSAMSHIISGRNNPSLDVLTKIMQRFTYVDTDWLLFGKGSMV | -0.737 |
| HMEAVGLTPRQGDVLALLLQGKPNKLIARDLNLSVETVKDHVAAVLRALGVSTRTQAVLAVSQMQQQAAQ | -0.248 |
| HMTIYLSENIKRLRLEKELTQETLSEFLGVTSQSVSNWERGESYPDITMLPEIADFFKVSVDELLGVNRAE | -0.889 |
| HMGSNATIKYAIKGDESLVQVAQKFNVTVSELRSWNNISAFENAKTGQELVINVPASKYETYFALANT | 0.22 |
| HMQRDDMQIDRLIQIVFLLLSRNNLTAKQLAEELGVSTRTIYRDINILSVAGIPITSQKGYGGGLSLLQG | -0.62 |
| HMFNTWLGEIRSNTGANVRSGPDASAAIVDARPNETVVRVIGQSGNWLQIGDKQFVAQSLVAP | -0.0505 |
| HMSIYMNIYNEFKKYIIANVYKYDDKLPSVRSIALEYGINPNTVQRAFQLLEDEGYIKTISKKGVYVNYR | -0.781 |
| HMGAPVIYELTAESAAGQRIDKYLSGQLADLSRSYLQKLLKDGGVEVNKKPVKSNYKLSEGDQIRLEVPEA | 0.207 |
| HMSLLQDRQRHEALAALGYYRGSVSAAWGAASVEALKAAQAALGVEVDGKWGPKTEDVIQAALGT | -0.00704 |
| HMAVLGIQPVFHRSTGQTVYKSSVNTAKGRVYLGLFPTLTEALEIKLKYMQEHGHTKGITNLTNKLKEL | -1.17 |
| HMQIDDSVELSAIVEKLLAANPEQVEQLKNGKTKVLGYFVGLAMKETQGRANPQKVNELIQTHL | -0.174 |
| HMTAVAAEQQAQDAYRQTAANNLNEIQAKYKLPDSESDDFFTFAYERGFTQEDFIDIGLVDKIMGDYV | 0.0927 |
| HMPKRSKDEAELEFLEMLRDNQVDSTWSFGKIISQLGSTDPRYWMVDDDPLWKRQIFEKYLSNR | -0.292 |
| HMKIEEIAYSTFISMLDKGEVSKVELKDNLIYIETKADDKTIYTTGRMEDPDLTNRLIEAGVDFTEIE | -0.317 |

| Sequence | soluble fraction (log2) |
| --- | --- |
| HMQSAMALTKDLIEQQGKYYHRGQPFTGVGFAKNKKGKFVTEEPFKNGLLHGKRVNYDHNGHVLAREK | 0.264 |
| HMQKDAYVPDIISKLKSSRMIVVEGTIYPLLTRLKNTGLLSYRWEESLQGPPRKYYSITEQG | 0.112 |
| HMATPKYMELVRWINEQIESKNLVPGQKMYSENTLKEMFGVSRQTVRHAIGVLENEGVIRRIQGSGTYIN | -0.829 |
| HMSIGPQMAGRRVLSGDLIARLEAFEGTVVLGRGVAREDALLIATQAGHVRWEPASRRLWVDSTA | -0.458 |
| HMDVAWDAIKAKLKEVVDAEDKAHPLNDDQIVKALGESGITIARRTIAKYRDLLGIPPARKRKA | 0.0649 |
| HMVMNKQEFLKILRDTLQSQLSSRETENHVEYYRTYIEEQMREGKTEIEILDVLGDPRLIARTILET | -0.0725 |
| HMRGFGEVGQLPSGRYRARYTGPDGGRHSAPITFVARIDAEGWLVDQERMISRGEWEPPARQ | -0.224 |
| HMVAPNSEATTKLIIEKTKYANESPAILMGFKATATMLMAKHVVLPTSKYAYFNEGRALLEKAIK | -0.0203 |
| HMGEMTDFETLRDMYLTGQIWNIDDLIEANGVEGRIVRRGTNYIAFNDRDGKVHKAWLHEVTINE | -0.836 |
| HMHAEEIAREAKEALERGEEFHFAGITVRSEEALEFLEEWLRKFF | -0.659 |
| HMAGTKRAENIEIQKLTEVLEARLDSVGFFWPDHKAESMIMTLRNMISRLPLTEADVRVFHGIIKSLADK | -0.527 |
| HMDTNVKLLSPKQADFFASKLANNQNFSSKFAKVGEDMQPFIERISSELQQDISQVIVYMPYLLESGFKQ | 0.0782 |
| HMKVLFLESIEGSASMGEIKDVANGYARNFLFPNGFAVPATPKNLKNVEELQAKELEIQTERDNWAA | -0.0454 |
| HMGSPKLVIKNGQVDYQVLKKEKLDLLELTSLLRGQNTFSIREIEYAIIEPNGVITVIKKPEYQSVVKGDL | -0.239 |
| HMFTKSNLEKLSNSELILKAIDSGNYSKIEFGGSEALNPDVPSYKKDLKNREELIEILSEMGM | -0.0323 |
| HMSTPLPTGLPRGTIIEYTVQTDETLAIIAAKFNSTVDDIMTRNKITDPNTIYAGQILKVAINLVTP | 0.15 |
| HMQDTRSHARKMLAAIEALLEGRSGSDIQAYTIHNRSITKMTVPELVKWRSYYQQQVRSEDAAASLA | -0.129 |
| HMRHSLAAALTELRRLAALDLGDFFRFEYVSHTDSLGGKQQAYTEGIRVSFGVYLGVNKKDRLNVDPVV | -3.44 |
| HMPPLVLRGVVMGADGARLAILAQGEAGAALGIGETWKEYTLRSVTDQSATLEHRSGTITLTR | -0.117 |
| HMESILDDFPGLGAVRRAALLEHFGDIDRLRAASAVEITEVDGFGDVLARELHDFLHRPKPDA | -0.455 |
| HMKLSKKVTDFLAQMPSKSISPKMLANNLGLADDAGDYKHLLKTIAQLEESKAIEVTAAGNIALPQPE | 0.0358 |
| HMIHQIPVNVQKIRQIIGINLNENDYLNYLAKLGFVIDEGLIIVPSFRSDVKTQNDLAEEIARV | -0.444 |
| HMPPDVIENIFKNDANKIIDLYNMAPRGQKETIVEMIKNKRLQGINVDANVLVKLGELTGIDFVN | 0.0803 |
| HMFDLATVKRVAEEAGMKFTIHPVELRAAHPNTAVLTLKSKAGRILVLKAASVGGGRIRVTEIDGVPAD | -0.423 |
| HMDITGIGIKKRIKAIIDSEDKKNPLSDTQIVEILKNEGLEISRRTVAKYRSDLQIPSSSKRKK | 0.403 |
| HMQEHAHLWRLMEDNRSFKADYIAFENGIVLLQNLSSGKISQYPITDFSIEDQLLILKRHELTAHINAN | -3.09 |

| Sequence | soluble fraction (log2) |
| --- | --- |
| HMSETAVTYNEDFEADGSLRPNEQAVLDAFTGVLKLTVSELEKKTGLRNVVPVVASLMAKGAVEVSEELK | 0.0501 |
| HMNHLLYPNPANNFIWIKNSTSNTAVIYNLQGVMSKVEVSEEGKIDISRFSPGLYMIKQGERIYKFTIA | -1.34 |
| HMSTISPNAFNFLQQNLNKFSDDAEGKMIKDILSKTTYDEYVKNEKSKTDFNSLLRRQTTTGDDNLNRYIN | 0.0247 |
| HMKTITLDEAQEIALAEVDGKVTRAVEETDDGRSYYEFDIITNDQKHELEVDASSGKITKNEIDEDYVPS | 0.171 |
| HMYRIGELAKLADVTPDTIRYYEKQQMMDHDVRTEGGFRLYSDNDLQRLKFIRYARQLGFTLEAIRELLSI | -1.81 |
| HMQISDNTILEDAVSRIIDENPKSVSDYFQGKEAVVGFFIGQIMRETKGTANPKIAREIVISHLEAI | -0.778 |
| HMSSIDLTARSGRAALKHRLSLLGYEFSKIELETLYVRFIELADEKKLLHDEDLIELVKEKN | -1.37 |
| HMAIIQSNNIFKSQKEIVDEILVELDIPKDKWNFFHMLISSGYKDEFDTNRIYEIIQTNYNMMDR | -0.205 |
| HMQEIKPEPISDGRVWKEGMWATTPLGIEGQLLSDPDEKGMVQLGYGNMRININIQDLDPSR | -0.0705 |
| HMVNLLVTPLEELEINFRTLRALRKYNIYQLEDLLRFIKYNGFDALRIVPGMGIKSTEQLYEKLKDKNI | -0.236 |
| HMPQPEIEIAAVVPYSAGALLSRIHDDGELLAPVEYRGEGVFVHARVPADIEAAMRRGGMLSPAET | 0.0913 |
| HMAESNQIQLSDVREALNMIGPASWLDLVHYLDTGKGRGGQRLRRMLKSLSRSGEIELVARGTYQITDN | -0.422 |
| HMQEDKVRKLTEMGFAEDQAREALRKHDWDETMALNSL | 0.199 |
| HMSPLQLGNYNTLRITRFTDHGAYLDGGDVGEILMPKTYVLPEMKPGDEVRVFVYLDQEERLVGTTET | -0.017 |
| HMDKEKLQEKLLQIFEAEPQKKFQVQDLVKVLDMEGAGQFKFVVQALADLEHNKQIKLSEDDTFSLIVKE | 0.0616 |
| HMTSAPHHIAAVLRDAIYRGVLEEGGPLHQARIAQSLGVSPIPLREALRLLETEGLVEFRGYRGAFVT | -0.492 |
| HMRHTRQRQAVLDALVRSGQALSPQDLLGQAKSAVPSLNLSTVYRQIKGLQDAGQIVRVELPGQPPRFEM | -0.107 |
| HMDKKIVGVNAGKVWQALNEVTEISIVELAEKLNLSVESTALAAGWLAREDQISIERKNGTIELQRKN | -0.263 |
| HMNAAFMKAERLLAILNILLTGKRVSSTELAKKLEVSVRTVYRDVEALSEAGFPVYATMGRDGGFGLIEGF | -1.95 |
| HMISAQEQALRNLKLSNGMTWKALAKALGITERSILSYVAAPGTKGYREMPAEVWHKLENISGH | 0.165 |
| HMTTVKDRVYEILKREIVLGKLKPGEPINIAVLSTKLNISSAPLREALNMLSRDGLVTLNPRKHAAVSE | -0.499 |
| HMTTTFGWENLVGEKGIAATDLHPSGWVTVKDQRVFVVSEGTFIEEGKEVEIMNVDGNRIVVREFKN | 0.0515 |
| HMYELDIYPNPAIDKINVLLPSSTTLPVKVEIYDIMGKKVNSLLTTKKAFTIETDQFEKGIYFVKA | 0.0213 |
| HMLRPMVAILNKNISKGQVISEDYIKFEVRPERQIHGAYHDISEVLGRKTKNNIAAGTILKVRHLDT | -0.201 |

From the domain aggregation screens of Martell et al. (2025)
